The text below walks through data of the supplement of paper PMC10567573.

B1: KCNA1 (parent)
chain: LKASMRELGLLIFFLFIGVILFSS
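Note: lentivirally expressed fusions sorted by FACS into six bins by GFP to DsRed ratio, PSI derived from sequencing read proportions per bin multiplied by bin number.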

The variants in this data set derive from B1. Kind of data set: protein stability index of a GFP-peptide fusion (GPS, HEK-293T) (PSI 1-6); higher = more stable. As to conditions: c terminus: a fixed tail appended.
Take LKASMRELGLLIFFLIIGVILFSS: the protein stability index turned out to be 2.25.

With LKASMRELGLLIFFLDIGVILFSS, the protein stability index is 1.64.

Consider LKASMRELGLLIFFLRIGVILFSS, for which the protein stability index turned out to be 1.32.

As to LKASMRELGLLIFFLVIGVILFSS, the protein stability index worked out at 2.07.

Regarding LKASMRELGLLIFFLMIGVILFSS, the protein stability index was 2.17.

Take LKASMRELGLLIFFLEIGVILFSS: the protein stability index was 3.14.

Turning to LKASMRELGLLIFFLSIGVILFSS, the protein stability index worked out at 2.55.

For the variant LKASMRELGLLIFFLYIGVILFSS, the protein stability index was 3.35.

For the variant LKASMRELGLLIFFLLIGVILFSS, the protein stability index worked out at 2.91.

Consider LKASMRELGLLIFFLKIGVILFSS, for which the protein stability index was found to be 2.35.

With LKASMRELGLLIFFLFIGMILFSS, the protein stability index worked out at 2.52.

Take LKASMRELGLLIFFLFIGDILFSS: the protein stability index stood at 2.65.

In the case of LKASMRELGLLIFFLFIGIILFSS, the protein stability index is 2.27.

Take LKASMRELGLLIFFLFIGQILFSS: the protein stability index was found to be 3.09.

Regarding LKASMRELGLLIFFLFIGLILFSS, the protein stability index stood at 1.59.

In the case of LKASMRELGLLIFFLFIGYILFSS, the protein stability index came out at 1.86.

Take LKASMRELGLLIFFLFIGTILFSS: the protein stability index stood at 3.34.

LKASMRELGLLIFFLFIGKILFSS: the protein stability index came to 4.72.

Turning to LKASMRELGLLIFFLFIGGILFSS, the protein stability index was found to be 2.85.

For LKASMRELGLLIFFLFIGWILFSS, the protein stability index came out at 2.1.

As to LKASMRELGLLIFFLFIGSILFSS, the protein stability index amounted to 3.99.

For the variant LKASMRELGLLIFFLFIGRILFSS, the protein stability index came to 2.66.

For LKASMRELGLLIFFLFIGAILFSS, the protein stability index is 2.58.

Regarding LKASMRELGLLIFFLFIGNILFSS, the protein stability index amounted to 2.33.

Regarding LKASMRELGLLIFFLFIGCILFSS, the protein stability index was found to be 1.65.

In the case of LKASMRELGLLIFFLFIGPILFSS, the protein stability index is 2.51.

For the variant LKASMRELGLLIFFLFIGHILFSS, the protein stability index stood at 4.02.

With LKASMRELGLLIFFLFIGFILFSS, the protein stability index was 1.99.

As for LKASMRELGLLIFFLFIGVILESS, the protein stability index was 2.63.

LKASMRELGLLIFFLFIGVILGSS: the protein stability index amounted to 1.81.

Consider LKASMRELGLLIFFLFIGVILVSS, for which the protein stability index stood at 1.8.

For LKASMRELGLLIFFLFIGVILHSS, the protein stability index was 3.76.

LKASMRELGLLIFFLFIGVILASS: the protein stability index stood at 2.33.

With LKASMRELGLLIFFLFIGVILQSS, the protein stability index was 3.69.

As for LKASMRELGLLIFFLFIGVILWSS, the protein stability index worked out at 2.75.

As to LKASMRELGLLIFFLFIGVILYSS, the protein stability index is 1.93.

For LKASMRELGLLIFFLFIGVILLSS, the protein stability index was determined as 2.25.

Regarding LKASMRELGLLIFFLFIGVILKSS, the protein stability index is 2.81.

With LKASMRELGLLIFFLFIGVILNSS, the protein stability index amounted to 3.37.

In the case of LKASMRELGLLIFFLFIGVILISS, the protein stability index is 2.43.

Regarding LKASMRELGLLIFFLFIGVILTSS, the protein stability index was determined as 3.72.

As to LKASMRELGLLIFFLFIGVILPSS, the protein stability index worked out at 2.64.

Consider LKASMRELGLLIFFLFIGVILDSS, for which the protein stability index was found to be 2.83.

Regarding LKASMRELGLLIFFLFIGVILRSS, the protein stability index is 2.24.

Regarding LKASMRELGLLIFFLFIGVILSSS, the protein stability index is 2.95.

Regarding LKASMRELGLLIFFLFIGVILMSS, the protein stability index came out at 2.98.

For LKASMRELGLLIFFLFIGVIFFSS, the protein stability index turned out to be 3.04.

For LKASMRELGLLIFFLFIGVIGFSS, the protein stability index was determined as 3.19.

LKASMRELGLLIFFLFIGVIVFSS: the protein stability index was 2.12.

For the variant LKASMRELGLLIFFLFIGVIWFSS, the protein stability index was 2.35.

With LKASMRELGLLIFFLFIGVISFSS, the protein stability index worked out at 3.5.

For the variant LKASMRELGLLIFFLFIGVICFSS, the protein stability index amounted to 2.43.

LKASMRELGLLIFFLFIGVIMFSS: the protein stability index was determined as 2.32.

LKASMRELGLLIFFLFIGVIKFSS: the protein stability index turned out to be 1.88.

Regarding LKASMRELGLLIFFLFIGVIQFSS, the protein stability index worked out at 3.29.

For LKASMRELGLLIFFLFIGVIIFSS, the protein stability index stood at 2.17.

Turning to LKASMRELGLLIFFLFIGVIHFSS, the protein stability index came to 2.98.

On to LKASMRELGLLIFFLFIGVITFSS, for which the protein stability index was determined as 2.68.

On to LKASMRELGLLIFFLFIGVIRFSS, for which the protein stability index stood at 3.21.

Regarding LKASMRELGLLIFFLFIGVINFSS, the protein stability index is 2.64.

Take LKASMRELGLLIFFLFIGVIYFSS: the protein stability index came to 1.91.

On to LKASMRELGLLIFFLFIGVIPFSS, for which the protein stability index is 2.86.

Regarding LKASMRELGLLIFFLFIGVIDFSS, the protein stability index is 3.39.

As for LKASMRELGLLIFFPFIGVILFSS, the protein stability index came out at 2.29.

In the case of LKASMRELGLLIFFTFIGVILFSS, the protein stability index worked out at 3.59.

As for LKASMRELGLLIFFWFIGVILFSS, the protein stability index was found to be 2.7.

Consider LKASMRELGLLIFFHFIGVILFSS, for which the protein stability index was determined as 2.11.

As for LKASMRELGLLIFFFFIGVILFSS, the protein stability index is 1.79.

As to LKASMRELGLLIFFMFIGVILFSS, the protein stability index stood at 1.7.

In the case of LKASMRELGLLIFFKFIGVILFSS, the protein stability index worked out at 2.54.

Take LKASMRELGLLIFFRFIGVILFSS: the protein stability index turned out to be 2.01.

With LKASMRELGLLIFFGFIGVILFSS, the protein stability index worked out at 2.53.

Consider LKASMRELGLLIFFIFIGVILFSS, for which the protein stability index came to 1.55.

With LKASMRELGLLIFFCFIGVILFSS, the protein stability index is 2.37.

As for LKASMRELGLLIFFSFIGVILFSS, the protein stability index was 2.67.

As for LKASMRELGLLIFFNFIGVILFSS, the protein stability index was 3.33.

On to LKASMRELGLLIFFAFIGVILFSS, for which the protein stability index was 2.44.

In the case of LKASMRELGLLIFFYFIGVILFSS, the protein stability index amounted to 2.55.

On to LKASMRELGLLIRFLFIGVILFSS, for which the protein stability index was found to be 2.03.

For LKASMRELGLLIIFLFIGVILFSS, the protein stability index was 1.77.

With LKASMRELGLLIYFLFIGVILFSS, the protein stability index came to 4.13.

LKASMRELGLLIVFLFIGVILFSS: the protein stability index was found to be 1.63.

For LKASMRELGLLIMFLFIGVILFSS, the protein stability index was found to be 1.32.

LKASMRELGLLIGFLFIGVILFSS: the protein stability index amounted to 2.98.

Take LKASMRELGLLIPFLFIGVILFSS: the protein stability index amounted to 3.61.

Take LKASMRELGLLIAFLFIGVILFSS: the protein stability index came to 1.57.

In the case of LKASMRELGLLIKFLFIGVILFSS, the protein stability index stood at 2.76.

As for LKASMRELGLLINFLFIGVILFSS, the protein stability index is 3.41.

Turning to LKASMRELGLLIDFLFIGVILFSS, the protein stability index stood at 3.37.

On to LKASMRELGLLILFLFIGVILFSS, for which the protein stability index amounted to 2.16.

For LKASMRELGLLIEFLFIGVILFSS, the protein stability index is 2.6.

Turning to LKASMRELGLLIQFLFIGVILFSS, the protein stability index worked out at 4.29.

On to LKASMRELGLLIHFLFIGVILFSS, for which the protein stability index was found to be 3.07.

For the variant LKASMRELGLLISFLFIGVILFSS, the protein stability index is 3.56.
